Data on one molecule can be found in PMC3382207, “Proteolytic Processing of ErbB4 in Breast Cancer” (PLoS ONE, 2012).

The target in experiment [1] is T1, soluble ErbB4 ectodomain (UniProt Q15303).
T1 sequence: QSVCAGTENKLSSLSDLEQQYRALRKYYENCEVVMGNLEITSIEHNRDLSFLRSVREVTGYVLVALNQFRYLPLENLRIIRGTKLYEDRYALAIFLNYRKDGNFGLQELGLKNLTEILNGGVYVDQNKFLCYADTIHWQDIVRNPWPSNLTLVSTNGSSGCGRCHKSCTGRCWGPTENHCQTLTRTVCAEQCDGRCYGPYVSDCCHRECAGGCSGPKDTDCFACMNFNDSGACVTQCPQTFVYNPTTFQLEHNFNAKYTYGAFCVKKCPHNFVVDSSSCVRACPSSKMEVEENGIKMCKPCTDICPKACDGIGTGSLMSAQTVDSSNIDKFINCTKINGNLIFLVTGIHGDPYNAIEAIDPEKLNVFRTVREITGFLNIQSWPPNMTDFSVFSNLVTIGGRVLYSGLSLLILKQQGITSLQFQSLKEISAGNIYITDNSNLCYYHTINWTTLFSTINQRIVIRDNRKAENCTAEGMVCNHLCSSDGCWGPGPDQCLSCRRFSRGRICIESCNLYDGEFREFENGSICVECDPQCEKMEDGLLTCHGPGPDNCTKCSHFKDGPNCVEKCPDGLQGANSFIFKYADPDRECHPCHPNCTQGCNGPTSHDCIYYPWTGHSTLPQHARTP

Experiment [2] deals with T2, His-tagged extracellular subdomain IV of ErbB4 (Homo sapiens, isoform JM-a, UniProt Q15303).
T2 construct: ErbB4 extracellular subdomain IV; construct limits are in File S1; source: COS-7, transiently transfected, in conditioned medium; not shown: His tag, C-terminal, kept
T2 sequence (Q15303 whole entry, looked up, tested part not stated, canonical isoform): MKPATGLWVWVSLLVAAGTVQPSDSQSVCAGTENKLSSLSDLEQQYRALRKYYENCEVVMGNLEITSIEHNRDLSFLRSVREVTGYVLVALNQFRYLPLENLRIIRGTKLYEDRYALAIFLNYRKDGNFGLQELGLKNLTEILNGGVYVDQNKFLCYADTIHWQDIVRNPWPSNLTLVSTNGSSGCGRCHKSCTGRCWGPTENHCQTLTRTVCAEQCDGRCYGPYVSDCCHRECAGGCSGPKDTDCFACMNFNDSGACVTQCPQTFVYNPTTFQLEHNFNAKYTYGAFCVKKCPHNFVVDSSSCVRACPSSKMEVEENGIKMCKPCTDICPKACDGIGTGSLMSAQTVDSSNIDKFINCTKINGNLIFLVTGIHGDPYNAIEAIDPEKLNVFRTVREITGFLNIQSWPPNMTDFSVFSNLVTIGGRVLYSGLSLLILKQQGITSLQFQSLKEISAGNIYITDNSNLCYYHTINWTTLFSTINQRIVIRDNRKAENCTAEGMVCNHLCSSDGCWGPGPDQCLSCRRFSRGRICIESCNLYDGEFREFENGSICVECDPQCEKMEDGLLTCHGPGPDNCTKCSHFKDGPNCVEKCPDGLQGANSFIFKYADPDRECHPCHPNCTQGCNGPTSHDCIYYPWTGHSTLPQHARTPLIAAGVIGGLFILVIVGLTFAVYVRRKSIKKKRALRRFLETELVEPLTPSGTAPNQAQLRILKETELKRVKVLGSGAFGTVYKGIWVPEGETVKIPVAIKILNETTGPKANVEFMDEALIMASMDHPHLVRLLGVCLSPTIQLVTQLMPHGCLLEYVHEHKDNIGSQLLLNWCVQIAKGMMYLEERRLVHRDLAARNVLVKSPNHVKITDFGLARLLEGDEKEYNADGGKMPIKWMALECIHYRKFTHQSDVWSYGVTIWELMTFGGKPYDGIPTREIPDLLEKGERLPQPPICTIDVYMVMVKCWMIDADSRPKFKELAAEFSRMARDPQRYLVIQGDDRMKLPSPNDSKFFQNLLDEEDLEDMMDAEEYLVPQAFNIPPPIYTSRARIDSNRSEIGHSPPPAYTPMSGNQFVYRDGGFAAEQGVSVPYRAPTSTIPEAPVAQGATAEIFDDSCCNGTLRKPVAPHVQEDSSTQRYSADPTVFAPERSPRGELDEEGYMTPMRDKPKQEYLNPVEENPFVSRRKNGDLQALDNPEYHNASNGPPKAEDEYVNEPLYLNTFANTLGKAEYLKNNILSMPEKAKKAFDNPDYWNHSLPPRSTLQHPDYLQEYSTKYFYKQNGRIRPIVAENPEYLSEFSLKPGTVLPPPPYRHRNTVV
The experiment can be described thus: Western blot; conditioned media of COS-7 transfectants expressing the His-tagged subdomains, blotted under non-reducing conditions, mAb 1479 as the primary antibody; anti-pentaHis as control of expression. The following applies: one partner purified.

Experiment [3] concerns the target T1, soluble ErbB4 ectodomain. The source holds these as a separate data set.

B1: anti-ErbB4 monoclonal antibody mAb 1479 (antibody, V domains shown)
VH: QVTLKESGPGILQPSQTLSLTCSFSGFSLSTYGIGVGWIRQPSGKGLEWLAHIWWNDNKYYNIALRSRLTISKDTSNNQVFLKIASVDTADTATYYCARIPDDHYFDYWGQGTTLTVSS
VL: DVLMTQTPLSLPVSLGDQASISCRSSQSIVHSNGNTYLEWYLQKPGQSPKLLIYKVSNRFSGVPDRFSGSGSGTDFTLKISRVEAEDLGVYYCFQGSHVPWTFGGGTKLEIK
notes: constant part of the IgG2 isotype; mouse monoclonal antibody, IgG2 isotype
In turn, B1 returned a relative proportion of the 80 kD carboxy-terminal fragment of the total ErbB4 in T-47D xenografts (Western blot with E-200), control IgG against mAb 1479 in experiment [1] of 74%. Further, the binding result in experiment [2] is given as “binds”. In experiment [3], this molecule returned a relative proportion of the 100 kD ectodomain fragment of total ErbB4 in T-47D xenografts (Western blot with mAb 1464), control IgG against mAb 1479 of 9%.
